Reference: the Human Domainome abundance scans (Beltran et al. 2025)

B1: Chromodomain-helicase-DNA-binding protein 7, residues 2564 to 2605; numbered along this chain, Q9P2D1 (parent)
chain: DPDTRIPVINLEDGTRLVGEDAPKNKDLVEWLKLHPTYTVDM

Variants of: B1
Test: abundance fitness (aPCA) (normalised: wild type 0, dead -1); higher = more abundant; growth selection in yeast, the domain comes from the species named
Details: Homo sapiens

Abundance fitness of substitutions, site by site:
I6: H -0.133, F -0.283, E -0.276, N -0.419, S -0.189, L -0.697, D -0.201, Y -0.699, V 0.262
N25: I -0.326, S -0.101, K 0.095, P -0.4, F -0.249, D -0.122, R -0.1, Y -0.253, G -0.157, C -0.274, W -0.418, A -0.206, L -0.252, T -0.131, M -0.086
D21: W -0.442, S -0.093, R -0.316, V -0.508, K -0.134, H -0.109, Q -0.018, L -0.161, N -0.054, A -0.279, E -0.207, T -0.246, I -0.512, F -0.17, Y -0.165, P -0.378, M -0.161, C -0.07
V8: F -0.869, N -0.578, R -0.624, H -0.577, W -0.794, D -0.511, K -0.387, C -0.577, G -0.66, I -0.433, P -0.534, L -0.481, S -0.644, A -0.535, E -0.516, Y -0.894, Q -0.384
R16: K 0.06, V 0.059, H 0.071, A -0.039, N -0.128, M 0.502, C 0.154, Q -0.23, W -0.173, G -0.4, S 0.132, L -0.077
G19: E -0.093, D -0.125, V -0.64, Q -0.437, M -0.442, A -0.292, S -0.468, N -0.264, F -0.852, I -0.644, W -0.638, R -0.59, Y -0.45, H -0.478, K -0.262, T -0.741, L -0.518
P23: I -0.496, V -0.658, N -0.915, L -0.725, R -0.843, Y -1.1, K -0.515, M -0.654, F -0.784, W -1.09, A -1.35, C -0.497, S -0.79, H -0.679, Q -0.252, E -0.684
R5: P -0.004, N -0.349, L -0.844, M -0.242, V -0.372, W -0.906, S -0.303, K 0.124, C -0.27, D -0.709, T -0.244, F -0.451, I -0.39, Q -0.493, G -0.374
K24: H -0.107, G -0.552, F -0.444, D -0.489, I -0.165, T -0.047, R -0.188, Y -0.237, C -0.094, W -0.426, M 0.274, Q -0.243, P -0.449, V -0.475, S -0.206, L -0.099, A -0.022
A22: T -0.527, C -0.168, L -0.539, H -0.306, F -0.466, E -0.839, Y -1.03, P -0.622, R -0.477, I -0.483, N -0.519, V -0.79, D -0.565, M -0.673, S -0.358, W -1.04
D13: L -0.627, A -0.183, N 0.046, V -0.421, H -1.01, G -0.268
N10: M -0.598, W -0.549, C -0.054, F -0.85, E -0.786, K -0.341, V -0.852, T -0.466, S -0.025, Q -0.738, Y -0.989, I -1.4, L -1.01, D -0.154, H -0.298, G -0.388, R -0.409, A -0.598
D27: R -0.649, P -0.88, N 0.019, K -0.517, H -0.224, L -0.678, F -0.405, S -1.11, G -0.38, C -0.175, I -0.438, E -0.23, A -0.4, M -0.727, T -0.526
P7: G 0.227, V -0.238, D 0.133, Q -0.691, K 0.082, R 0.064, N -0.145, A 0.067, F -1.07, C -0.347, M -0.297, T -0.046
V18: Q 0.108, Y -0.065, C 0.074, H -0.047, S 0.076, L -0.131, R -0.081, E 0.039, P -0.372, D 0.147, K -0.154, G -0.04, T 0.118, W -0.132, M 0.091, N -0.06, F -0.165, I 0.155
K26: Q -0.039, F -0.486, V -0.166, E 0.154, C -0.166, L -0.559, P -0.56, D -0.258, A -0.068, G -0.208, Y -0.481, I -0.255, H 0.203, T -0.361, R -0.081, N -0.276, M -0.278, S -0.106, W -0.639
T15: N 0.117, L -0.055, M -0.264, R 0.064, V 0.023, D 0.018, K 0.051, G 0.081, P -0.252, A 0.069, F -0.218, H -0.128
L11: S 0.193, Y 0.064, H 0.293, N 0.242, T 0.353, F 0.015, G 0.094, E 0.058, C -0.195, R -0.104, K 0.005, D 0.067, M 0.355, I 0.214
T4: P -0.286, I -0.115
L17: T -0.308, W -0.527, Y -0.217, D -0.41, C -0.272, R -0.046, H -0.095, I -0.012, V -0.17, G -0.371, F -0.191, N -0.351, M 0.151, P -1.01, S -0.421, Q -0.124, E -0.321
D3: M -0.063, V -0.335, Q -0.109, R -0.256, T -0.182, S -0.137, W -0.53
E20: L -0.369, A -0.163, S -0.159, C -0.264, W -0.447, I -0.208, N -0.167, Y -0.395, H -0.498, T -0.027, K -0.125, V -0.195, M -0.235, F -0.365, R -0.189, G -0.196, D -0.059
G14: M 0.114, A -0.115, S -0.141, C -0.226, T -0.275, R -0.168, W -0.084, N 0.152, F -0.277, L -0.424, E -0.012, D -0.146, Q 0.007
I9: E -0.088, C -0.123, S -0.098, D -0.345, A -0.111, V 0.04, F -0.075, Q -0.032, G -0.159, T -0.012, R 0.064, L 0.026
